Among the data in patent publication US9371374 are Reactivity (OD492) and expected % binding values, retold here.

Residue numbers refer to the chain shown, from its start.

Assay [1] concerns the target biotinylated HCV core peptide 134-154 (Peptide 1) (HCV-1). Nature of the assay: EIA, captured mAb.
The target of assay [2] is biotinylated HCV core peptide 151-171 (Peptide 3) (HCV-1). Nature of the assay: EIA, captured mAb.
For assay [3], the target named is biotinylated HCV core peptide 141-161 (Peptide 2) (HCV-1). Nature of the assay: EIA, captured mAb.
The target of assay [4] is HCV Core1-169 (HCV-1) (UniProt P26664). Nature of the assay: SPR sandwich, C11-14 capture.
Assay [5] has the same target. Nature of the assay: SPR sandwich, C11-3 capture.
For assay [6] the target is unchanged. Kind of assay: SPR sandwich, C11-7 capture.
For assay [7] the target is unchanged. Nature of the assay: SPR sandwich, C11-9 capture.

B1: HCV 208B-517 (antibody, V domains shown)
VH: QVQLKQSGPGLVQPSQSLSITCTVSGFSLITHGVHWVRQSPGKGLEWLGVIWSGGSTDYNAAFISRLSISKDTSKSQVFLKMSSLQADDTAIYYCARNGGATAFDYWGQGTTLTVSS
VL: DIVMTQSPATLSVTPGDRVSLSCRASQSISDYLHWYQQKSHESPRLLIKYASQSISGIPSRFRGSGSGSHFTLSINSVEPEDVGVYYCQNGHSFPWTFGGGTKLEIKR
For the molecule B1, the Reactivity (OD492) in assay [1] came to 0.1 OD; in assay [2] it was 0.7 OD; in assay [3], 0.41 OD.

B2: HCV 208B-822 (antibody, V domains shown)
VH: QVQLKQSGPGLVQPSQSLSITCTVSGFSLITYGVHWVRQSPGKGLEWLGVIWGGGSTGYNAAFVSRLNITKDNSKSQVFFKMNSLQPDDTAIYYCARNGGATVFDYWGQGTTLTVSS
VL: B1 VL with S28T, R63S
Turning to B2, the Reactivity (OD492) in assay [1] turned out to be 0.08 OD; in assay [2], 0.07 OD; in assay [3] it was 1.35 OD.

B3: HCV 208B-793 (antibody, V domains shown)
VH: EVKLVESGGGLVQPGGSLKLSCAASGFTFSSYAMSWVRQTPERRLEWVTYISNGGGSTYYSDTVKGRFTFSRDNAKNTLYLQMSSLKSEDTAMYYCARHGLGRTGFASWGQGTLVTVSA
VL: DIVMTQSHKFMSTSVGDRVSITCKASQDVGTAVAWYQQKPGQSPKLLIYWASTRHTGVPDRFTGSGSGTDFTLTISNVQSEDLADYFCQQYSNYLTFGAGTKLEVKR
For the molecule B3, the Reactivity (OD492) in assay [1] was found to be 0.09 OD; in assay [2] it was 0.09 OD; in assay [3], 0.72 OD.

B4: HCV 208A-874 (antibody, V domains shown)
VH: QVQLQQPGAELVKPGASVKLSCKASGYTLSSYWMHWVKQRPGQGLEWIGEIHPSDSYTSYNQKFKDKATLTVDKSSSTAYMQLSSLTSEDSAVYYCARGGYYRYDEFAYWGQGTLVTVSA
VL: DIVMTQSHKFMSTSIGDRVSITCKASQNVSPAVAWYQQKPGQSPKLLIYSASSRYTGVPDRFTGSGSGTAFTFTISSVQAEDLAVYFCQQHFSTPWTFGGGTMLEIKR
B4: the expected % binding with HCV Core1-169 (HCV-1) [4], with HCV Core1-169 (HCV-1) [5], with HCV Core1-169 (HCV-1) [6] and in the assay with HCV Core1-169 (HCV-1) [7] was < 1% in each case. Moreover, the values for the Reactivity (OD492) in assay [1], in assay [2] and in assay [3] were 0.05 OD, 0.06 OD and 0.73 OD, respectively.

B5: HCV 208B-911 (antibody, V domains shown)
VH: QVHLQQPGAELVRPGVSVKLSCKASGYTFTTYSINWMKQRPGQGLEWIGNIYPSTSHTNYNQKFRDKATMTVDKSSSTAYMQLSSPTSEDSAVYYCTINAYSMDYWGQGTSVTVSS
VL: QIVLTQSPEIMSASPGEKVTITCSASSSVSFMYWFQQKPGTSPKLWIYITSNLASGVPTRFSGSGSGTSYSLTISRMEAEDAATYYCQQRSSFPYTFGGGTKLEMKR
In the case of B5, the Reactivity (OD492) was determined as 0.09 OD in assay [1], 0.71 OD in assay [2] and 0.09 OD in assay [3].

B6: HCV 208B-547 (antibody, V domains shown)
VH: QVQLQQSGAELAKPGASVKMSCKASGYTFTSNKMHWAKQRPGQGLEWIGYIDPSSGYTEYNQKIKDKATLTADKSSSTAYMQLSSLTSEDSAVYYCTNFAYWGQGTLVTVSA
VL: EVVLTQSPAITAASLGQKVTITCRASSSVSYMHWYRQKSGTSPQPWIYEISTLASGVPTRFRASGSGTSYSLTISSMEAEDAAIYYCQQWNYPLTFGAGTKLELKR
Turning to B6, the results for the Reactivity (OD492) in assay [1], in assay [2] and in assay [3] were 0.12 OD, 2.9 OD and 0.08 OD, respectively.

B7: HCV 208B-589 (antibody, V domains shown)
VH: B6 VH with E10G, S31A, Q62H, K65Q, K74T, S88F
VL: DIVMTQTPLTLSVTIGQPASISCKSSQSLLFTNGKTYLNWFLQRPGQSPKRLIYLLSKLDSGVPDRFSGSGSGTDFTLKISRVEAEDLGVYYCLQSTYFPLTFGAGTKLELKR
As for B7, the Reactivity (OD492) in assay [1] turned out to be 0.27 OD; in assay [2], 2.85 OD; in assay [3], 0.1 OD.

B8: HCV 208B-515 (antibody, V domains shown)
VH: QVQLQQPGAELVKPGASLKLSCRASGYTFTSYWIHWVKQRPGQGLEWIGEIDPSDSYTNYNQKFKGKATLTVDKSSRAAYMQLSSLTSEDSAVYYCARHYYGVFDSWGQGTKLTVSS
VL: QIVFTQYPAIMSASLGERVTMTCTASSSVTSSYLHWFQQKPGSSPKLWIYSTSNPGSGVPARFSGRGSGTSYSLSISSMEAEDAATYYCLQFHRSPWTFGGGTKLEIRR
As to B8, the Reactivity (OD492) in assay [1] was 0.51 OD; in assay [2] it was 0.06 OD; in assay [3] it was 0.13 OD.

B9: HCV 208B-556 (antibody, V domains shown)
VH: QLQQSGPVLVKPGASVMISCKTSGYTFTENAMHWVKQSHGKSLEWIGGVNPNNGDTIFNQKFKGKATLTVDKSSSTAFMEFRSLTSEESTVYYCVRRELDFFDYWGQGTSVTVSS
VL: DIVLTQSPASLAVSLGQRATISCRASQSVSTSRYSYMHWYQQKPGQPPKLLIKYASNLESGVPARFSGSGSGTDFTLNIHPVAEEDTATYYCQHSWEFPFTFGSGTKLEIKR
Regarding B9, the values for the Reactivity (OD492) in assay [1], in assay [2] and in assay [3] were 0.13 OD, 0.18 OD and 3.07 OD, respectively.

B10: HCV 208B-560 (antibody, V domains shown)
VH: EVQLQQSGPELEKPGASVKISCKTSGYTFTEYAMHWVKQSHGMSLEWIGGINPSNGNAIYNQIFKDKATLTVDRSSSTAYMGLRSLTFGDSGVYFCVRRQLDFFDYWGQGASLTVSS
VL: B9 VL with L4V, M37L, A83G
Turning to B10, the Reactivity (OD492) amounted to 0.11 OD in assay [1], 0.14 OD in assay [2] and 3.9 OD in assay [3].

B11: HCV 208B-672 (antibody, V domains shown)
VH: EVKLVESGGSLVQPGGSLKLSCAASGFNFNTYAMSWVRQTPEKRLEWVAYISNGGGNTYYVDTVKGRFTISRDNAKNTLYLRMSSLKSEDTAMYYCARHGLYWGYSMDYWGQGTSVTVSS
VL: DIQMTQSPSSLSASLGERVSLTCRASQDIGGSINWLQQEPDGTIKRLIYATSSLDSGVPKRFSGSRSGSDYSLTISSLESEDFVDYYCLQYASSPPTFGGGTKLEIKR
For the molecule B11, the Reactivity (OD492) in assay [1] was 0.08 OD; in assay [2], 0.1 OD; in assay [3], 2.79 OD.

B12: HCV 208B-408 (antibody, V domains shown)
VH: EVKLVESGGGLVQPGGSLRLSCASSGFTFTDYYMSWVRQPPGKALEWLGFIRNKAYGYTTEFSASVNGRFTISRDDSQSVPYLQMNTLRAEDSATYYCARVLYYDYGGFAYWGQGTLVTVST
VL: DIQMTQSPASLSASVGETVTITCRASGNIHTYLAWYQQKQGKSPQLLVYNANTLADGVPSRFSGSGSGTQFSLKINSLQPDDFGSYYCQHFWSAPWTFGGGTQLEIKR
In the case of B12, the figures for the Reactivity (OD492) in assay [1], in assay [2] and in assay [3] were 0.81 OD, 0.16 OD and 0.2 OD, respectively.

B13: HCV 208B-612 (antibody, V domains shown)
VH: EVQLQQSGPELVKPGASVKMSCKASGYRFTSYVMHWVRQKPGQGLEWIGYIDPHNDDTKYSEKFRGKATLTSDKSSTTAYMELSSLTSEDSAVYYCVRYSYDRDYSPMDYWGQGTSVTVSS
VL: QIVLTQSPTLMSASPGEKVTMTCSASSTVTYIYWYQQKPGSSPRLWMYDTFNLVSGVPARFSGSRSGTSYFLTISSMEGEDAATYYCQQYSDSPYTFGGGTKLEIKR
As to B13, the values for the Reactivity (OD492) in assay [1], in assay [2] and in assay [3] were 3.05 OD, 0.15 OD and 3.04 OD, respectively.

B14: HCV 208B-826 (antibody, V domains shown)
VH: DVQLVESGGGLVQAGGSRKLSCAASGFPFSSFGMHWVRQAPEKGLEWVASISSRTSKIYYADNLKGRFTISRDNPKNTLFLQMTSLGSEDTAMYYCVRSVFGNSYWFFDVWGAGTTVTVSS
VL: DIVLTQSPATLSVTPGDRVSLSCRASQRIYNYLHWYQQKSHESPRLLTKYASQSISGIPSRFSGSGSGTDFILTINSVETEDFGMYFCQQSNSWPLTFGAGTKLELRR
Consider B14, for which the values for the Reactivity (OD492) in assay [1], in assay [2] and in assay [3] were 0.53 OD, 0.08 OD and 1.35 OD, respectively.

B15: HCV 208B-862 (antibody)
chain 1: DVQLQESGPGLVKPSQSLSLTCTVTGYSITSDYAWNWIRQFPGNKLEWMGYISYSGTTVYSPSLKSRISITRDTSKNQFFLQLNSVTIEDSATYYCGGNYWGQGTLVTVSA
chain 2: DVVLTQTPLSLPLSLGDQASISCRSSQTLLHSDGDTYLHWYLQKPGQSPKLLIYKLSNRFSGVPDRFSGSGSGTDFTLKISRVEAEDLGVYFCSQSTHVPYTFGGGTKLEIKR
As to B15, the values for the Reactivity (OD492) in assay [1], in assay [2] and in assay [3] were 0.21 OD, 0.1 OD and 3.28 OD, respectively.
